Patent US12065466B2, “Methods and compositions for protein sequencing” (Quantum-Si Incorporated, priority 2020, dated 2024)
Numbering of substitutions follows the chain as printed.

B1: PS561: PS372-homologous ClpS protein, SEQ ID NO: 75 (protein)
chain: MAELQTAVVEPTTRPEQDEKQSQSRPKRQPRYNVILWDDPDHSYDYVIMMLKELFGHPRQRGHQMAEEVDTTGRVICLTTTMEHAELKRDQIHAYGSDEGITRCKGSMSASIEPVPE
modifications: Roseimaritima sp. JC651
B2: PS374: ClpS protein, SEQ ID NO: 7 (protein)
chain: MRWEDPLAAEPVTPGVAPVVEEETDAAVETPWRVILYDDDIHTFEEVILQLMKATGCTPEQGERHAWTVHTRGKDCVYQGDFFDCFRVQGVLREIQLVTEIEG
B3: PS562: PS372-homologous ClpS protein, SEQ ID NO: 76 (protein, listed as Rubripirellula amarantea)
chain: MSDQQSMVAEPEVVVHTQDEKKLEKQNKRKKQPRYNVVLWDDTDHSYDYVVLMMKQLFHHPIETGFQIAKQVDKGGKAICLTTTMEHAELKRDQIHAFGKDDLIARCTGSMSATIEPVPE
B4: PS563: PS372-homologous ClpS protein, SEQ ID NO: 77 (protein, listed as Acidobacteria bacterium)
chain: MSSRSATAYPEVEDDTSDQLQPLYHVILLNDEDHTYDYVIEMLQKIFGFPESKAFSHAVEVDTKGTTILLTCDLEQAERKRDLIHSYGPDWRLPRSLGSMAAVVEPAAG
B5: PS564: PS372-homologous ClpS protein, SEQ ID NO: 78 (protein)
chain: MFEEVVSVAVAEPKTKKQSRTKPKRQPPYHVILWDDTDHTFDYVIKMMGELFRMPREKGYQLAKEVDTSGRAICMTTTLELAELKRDQIHAFGRDDASAHCKGSMSATIEPAEG
modifications: Planctomycetes bacterium Poly21
B6: PS565: PS372-homologous ClpS protein, SEQ ID NO: 79 (protein)
chain: MSEFDHEHSGDTSVADPIVTTKTAPKPQKHAENETETRRQPPYNVIILNDEEHTFDYVIELLCKVFRHSLATAQELTWRIHLTGRAVVLTTHKELAELKRDQVLAYGPDPRMSVSKGPLDCFIEPAPGG
modifications: Aquisphaera sp. JC650
B7: PS566: PS372-homologous ClpS protein, SEQ ID NO: 80 (protein, listed as Planctomycetaceae bacterium)
chain: MSSPSSLDDVQVSTSRAKPANETRTRKQPPYAVIVENDDHHTFLYVIEALMKVCGHAPEKGFVLAQQIHTQGKAMVWSGTLELAELKRDQLRGFGPDNYAPRPVTFPLGVTIEPLP
B8: PS567: PS372-homologous ClpS protein, SEQ ID NO: 81 (protein, listed as Planctomycetaceae bacterium)
chain: MADYEDAGEDALEDDFDHGTVTVAPQKPEPKKQSENKRQANRQPRYNVLLWDSEDHTFEYVEKMLRELFGHIKKQCQIIAEQVDQEGRAVVLTTTLEHAELKRDQIHAYGKDQLEGSKGSMWSTIEAVD
B9: PS568: PS372-homologous ClpS protein, SEQ ID NO: 82 (protein, listed as Dehalococcoidia bacterium)
chain: MTTPSLPTRETEVEERTEVEPERLYHLVLLDDDQHSYQYVIEMLASIFGYGSEKAWTLARIVDTEGRAILETASHAQCERHQSQIHAYGADSRIPTSVGSMSAVIEEAGTPPQT
B10: PS569: PS372-homologous ClpS protein, SEQ ID NO: 83 (protein, listed as Planctomycetes bacterium)
chain: MYSKNQIKIYCSEDDKGQTATPLLEKKPKFAPLYHVILWDDNTHTYEYVIKLLMSLFRMTFEKAYQHTLEVDKKGRTICITTHLEKAELKQEQISNFGPDILMQNSKGPMSATIEPAN
B11: PS570: PS372-homologous ClpS protein, SEQ ID NO: 84 (protein, listed as Leptospira congkakensis)
chain: MTGAGASQPSILEETEVRPRLSDGPWKVVLWDDDFHTYEYVIEMLMDVCQMPWEKAFQHAVEVDTRKKTIVFSGELEHAEFVHERILNYGPDPRMGSSKGSMTATLEQ
B12: PS375: ClpS protein, SEQ ID NO: 8 (protein)
chain: MEAEPETKVLASIPGVGTSEPFRVVLFNDEEHSFDEVIFQIIKAVRCSRAKAEALTMEVHNSGRSIVYTGPIEQCIRVSAVLEEIELRTEIQS
B13: PS571: PS372-homologous ClpS protein, SEQ ID NO: 85 (protein, listed as Leptospira meyeri)
chain: B11 chain with G3S, A4S, V17R, R18K, S73F, S97T, Q108K
B14: PS572: PS372-homologous ClpS protein, SEQ ID NO: 86 (protein, listed as Blastopirellula marina)
chain: MSSEELSLQTRPKRQPPFGVILHNDDLNSFDYVIDSIRKVFHYELEKCFQLTLEAHETGRSLLWTGTLEGAELKQELLLSCGPDPIMLDKGGLPLKVTLEELPQ
B15: PS573: PS372-homologous ClpS protein, SEQ ID NO: 87 (protein, listed as Leptospira fluminis)
chain: MSQTPVIEETTVKDPVKTGGPWKVVLWDDDEHTYDYVIEMLMEVCVMTMEQAFHHAVEVDTQKKTVVYSGEFEHAEHIQELILEYGPDPRMAVSKGSMSATLEKS
B16: PS574: PS372-homologous ClpS protein, SEQ ID NO: 88 (protein, listed as Gemmata obscuriglobus)
chain: MANATPTPDVVPEEETETRTRRQPPYAVVLHNDDTNTMDFVVTVLRKVFGYTVEKCVELMLEAHTQGKVAVWIGALEVAELKADQIKSFGPDPHVTKNGHPLGVTVEPAA
B17: PS575: PS372-homologous ClpS protein, SEQ ID NO: 89 (protein, listed as Leptospira kmetyi)
chain: MASTQTPDLNEITEESTKSTGGPWRVVLWDDNEHTYEYVIEMLMEICTMTVEKAFLHAVQVDQEKRTVVFSGEFEHAEHVQERILTYGADPRMSNSKGSMSATLEK
B18: PS576: PS372-homologous ClpS protein, SEQ ID NO: 90 (protein)
chain: B17 chain with M44V, T48M, Q63K, V69D, F74L, T86N, K106R
modifications: Leptospira interrogans
B19: PS577: PS372-homologous ClpS protein, SEQ ID NO: 91 (protein, listed as Tuwongella immobilis)
chain: MSASSSQPGTTTKPDLDIQPRLLPPFHVILENDEFHSMEFVIDTLRKVLGVSIERAYQLMMTAHESGQAIIWTGPKEVAELKYEQVIGFHEKRSDGRDLGPLGCRIEPAV
B20: PS578: PS372-homologous ClpS protein, SEQ ID NO: 92 (protein, listed as Planctomycetes bacterium)
chain: MSGTVVESKPRNSTQLAPRWKVIVHDDPVTTFDFVLGVLRRVFAKPPGEARRITREAHDTGSALVDVLALEQAEFRRDQAHSLARAEGFPLTLTLEPAD

Test system: amino acid at a terminal position of a polypeptide
Assay: Amino acid binding preference of recognition proteins (Tables 1 and 2)
Details: Table 1, ClpS proteins; amino acid identity at a terminal position of a polypeptide; inferred from literature and/or demonstrated by the inventors
Source text: It should be appreciated that these sequences and other examples described herein are meant to be non-limiting, and recognition molecules in accordance with the application can include any homologs, variants thereof, or fragments thereof minimally containing domains or subdomains responsible for peptide recognition.

| Molecule | Binding Pref. |
| --- | --- |
| B1 | I, L, V |
| B2 | F, Y, W, L |
| B3 | I, L, V |
| B4 | I, L, V |
| B5 | I, L, V |
| B6 | I, L, V |
| B7 | I, L, V |
| B8 | I, L, V |
| B9 | I, L, V |
| B10 | I, L, V |
| B11 | I, L, V |
| B12 | F, L |
| B13 | I, L, V |
| B14 | I, L, V |
| B15 | I, L, V |
| B16 | I, L, V |
| B17 | I, L, V |
| B18 | I, L, V |
| B19 | I, L, V |
| B20 | I, L, V |
